From US20040009174A1
Values joined by “and” are separate entries in the source; they are usually repeats but may differ in a detail not shown here. Identical values can stand only once.

B1: Soluble human recombinant OX40 [CD134]:Fc (Fc fusion, UniProt P43489 29-220, looked up, not shown: a dimerising Fc or GST)
chain: LHCVGDTYPSNDRCCHECRPGNGMVSRCSRSQNTVCRPCGPGFYNDVVSSKPCKPCTWCNLRSGSERKQLCTATQDTVCRCRAGTQPLDSYKPGVDCAPCPPGHFSPGDNQACKPWTNCTLAGKHTLQPASNSSDAICEDRDPPATQPQETQGPPARPITVQPTEAWPRTSQGPSTRPVEVPGGRAVAAILG

Experiments:
[1] = molecular target: human CD40 (human) (UniProt P25942); experiment: cell-based or functional assay
Chain of UniProt P25942 (P25942 21-277): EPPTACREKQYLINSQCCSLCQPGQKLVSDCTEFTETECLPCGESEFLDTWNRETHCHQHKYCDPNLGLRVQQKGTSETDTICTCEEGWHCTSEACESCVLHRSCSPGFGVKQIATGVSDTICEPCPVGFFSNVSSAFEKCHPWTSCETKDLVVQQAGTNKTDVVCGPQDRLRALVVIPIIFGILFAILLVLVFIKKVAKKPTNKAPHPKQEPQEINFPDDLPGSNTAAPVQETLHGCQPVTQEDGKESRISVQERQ

[2] = molecular target: human OX40 ligand (OX40L) (human) (UniProt P23510); experiment: cell-based or functional assay
Chain of UniProt P23510 (P23510 whole entry): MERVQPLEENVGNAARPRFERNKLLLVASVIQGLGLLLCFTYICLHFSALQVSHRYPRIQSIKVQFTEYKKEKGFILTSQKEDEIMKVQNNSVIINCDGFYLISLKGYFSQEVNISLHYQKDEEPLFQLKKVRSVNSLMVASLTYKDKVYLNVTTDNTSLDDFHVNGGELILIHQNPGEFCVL

| Molecule | IL-6 production by HASM cells (ELISA), 1 ug/ml [1] | IL-6 production by HASM cells (ELISA), 1 ug/ml [2] | PKCβ2 in membrane fraction (Western blot), HASM cells [2] |
| --- | --- | --- | --- |
| recombinant human soluble CD40L (from UniProt P29965 116-261) (ligand) | 2 fold and 3 fold | – | – |
| B1 | – | 2 fold and 3 fold | 3 fold |
